{"source": "patent US20240228562A1", "about": "“NOVEL LIPOCALIN MUTEINS SPECIFIC FOR CONNECTIVE TISSUE GROWTH FACTOR (CTGF)” (PIERIS PHARMACEUTICALS GMBH, priority 2021, published 2024)", "key": {"huNOV": {"biological_target": "T1, huNOV (Homo sapiens, UniProt P48745)", "T1 sequence (P48745 32-357)": "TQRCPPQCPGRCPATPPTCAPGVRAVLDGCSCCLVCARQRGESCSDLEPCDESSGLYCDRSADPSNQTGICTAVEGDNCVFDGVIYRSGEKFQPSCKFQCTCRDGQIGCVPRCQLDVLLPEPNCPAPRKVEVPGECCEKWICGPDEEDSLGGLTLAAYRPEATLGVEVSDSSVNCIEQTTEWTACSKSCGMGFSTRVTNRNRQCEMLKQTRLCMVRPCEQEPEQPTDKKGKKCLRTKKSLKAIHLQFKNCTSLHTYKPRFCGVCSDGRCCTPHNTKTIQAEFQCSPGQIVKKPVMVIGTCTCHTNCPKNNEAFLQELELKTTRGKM", "assay": "Specificity ELISA (CCN proteins), huNOV", "format": "binding", "details": "coated 1 μg/ml; assessed when human CTGF signal approached saturation", "procedure": "(§1) Binding of muteins to closely related proteins of CTGF was tested by an ELISA assay. In detail, a 384-well plate suitable for fluorescence measurements (Greiner FLUOTRAC™ 600, black flat bottom, high-binding) was coated with 20 μl of human CTGF or the other members of the CCN protein family at a concentration of 1 μg/ml in PBS over night at 4° C. After washing with PBS with 0.05% Tween 20, wells were blocked with 100 μl blocking buffer containing 0.1% Tween 20 and 2% BSA (PBS-T/BSA) for 1 h at room temperature. 20 μl of serially diluted muteins starting at 1000 nM were incubated in PBS-T/BSA for 1 h at room temperature (RT).\n(§2) The residual supernatants were discarded and 20 μl HRP-labeled anti-NGAL or anti-Strep-Tag antibody was added at a predetermined optimal concentration in PBS-T/BSA and incubated for 1 h at RT. After washing, 20 μl fluorogenic HRP substrate (QuantaBlu, Thermo) was added to each well, and the reaction was allowed to proceed for 2 to 60 minutes. The fluorescence intensity of every well on the plate was read using a fluorescence microplate reader (Tecan). When the signal for human CTGF approached saturation, the cross reactivity to the other proteins was assessed."}, "huWISP-3": {"biological_target": "T2, huWISP-3 (Homo sapiens, UniProt O95389)", "T2 sequence (O95389 24-354)": "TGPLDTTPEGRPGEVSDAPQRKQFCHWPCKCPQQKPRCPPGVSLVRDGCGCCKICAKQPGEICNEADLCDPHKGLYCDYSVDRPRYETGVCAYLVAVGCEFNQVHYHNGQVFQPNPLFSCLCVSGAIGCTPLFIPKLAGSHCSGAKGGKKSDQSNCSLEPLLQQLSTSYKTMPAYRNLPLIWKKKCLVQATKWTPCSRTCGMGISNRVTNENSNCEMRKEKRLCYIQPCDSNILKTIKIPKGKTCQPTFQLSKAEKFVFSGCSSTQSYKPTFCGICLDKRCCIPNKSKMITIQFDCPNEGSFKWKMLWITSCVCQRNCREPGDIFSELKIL", "assay": "Specificity ELISA (CCN proteins), huWISP-3", "format": "binding", "details": "coated 1 μg/ml; assessed when human CTGF signal approached saturation", "procedure": "as §1, §2"}, "CTGF": {"biological_target": "T3, CTGF (Homo sapiens, UniProt P29279)", "T3 sequence (P29279 27-349)": "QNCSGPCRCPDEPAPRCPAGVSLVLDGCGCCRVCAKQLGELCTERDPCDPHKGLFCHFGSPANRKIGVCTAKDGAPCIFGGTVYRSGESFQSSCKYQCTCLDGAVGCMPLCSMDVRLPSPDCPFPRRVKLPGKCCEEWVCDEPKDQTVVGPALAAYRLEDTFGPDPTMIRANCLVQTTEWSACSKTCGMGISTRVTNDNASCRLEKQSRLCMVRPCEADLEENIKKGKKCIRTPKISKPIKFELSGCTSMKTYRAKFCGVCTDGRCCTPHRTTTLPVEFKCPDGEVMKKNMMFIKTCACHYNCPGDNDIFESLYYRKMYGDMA", "assay": "Specificity ELISA (CCN proteins), human CTGF", "format": "binding", "details": "coated 1 μg/ml, muteins from 1000 nM", "procedure": "as §1, §2"}, "huWISP-2": {"biological_target": "T4, huWISP-2 (Homo sapiens, UniProt O76076)", "T4 sequence (O76076 24-250)": "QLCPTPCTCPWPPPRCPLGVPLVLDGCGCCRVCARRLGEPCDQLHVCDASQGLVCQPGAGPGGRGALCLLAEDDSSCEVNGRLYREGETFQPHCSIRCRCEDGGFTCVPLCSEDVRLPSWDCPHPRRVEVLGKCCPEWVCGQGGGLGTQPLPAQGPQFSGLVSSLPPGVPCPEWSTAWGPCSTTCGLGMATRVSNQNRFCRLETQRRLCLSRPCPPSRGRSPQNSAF", "assay": "Specificity ELISA (CCN proteins), huWISP-2", "format": "binding", "details": "coated 1 μg/ml; assessed when human CTGF signal approached saturation", "procedure": "as §1, §2"}, "[1]": {"biological_target": "T5, Human CTGF with a human IgG1 Fc Tag (Homo sapiens, UniProt P29279, H83D)", "T5 construct": "purchased Creative Biomart", "T5 sequence (P29279 with tags, fused parts or gaps H83D)": "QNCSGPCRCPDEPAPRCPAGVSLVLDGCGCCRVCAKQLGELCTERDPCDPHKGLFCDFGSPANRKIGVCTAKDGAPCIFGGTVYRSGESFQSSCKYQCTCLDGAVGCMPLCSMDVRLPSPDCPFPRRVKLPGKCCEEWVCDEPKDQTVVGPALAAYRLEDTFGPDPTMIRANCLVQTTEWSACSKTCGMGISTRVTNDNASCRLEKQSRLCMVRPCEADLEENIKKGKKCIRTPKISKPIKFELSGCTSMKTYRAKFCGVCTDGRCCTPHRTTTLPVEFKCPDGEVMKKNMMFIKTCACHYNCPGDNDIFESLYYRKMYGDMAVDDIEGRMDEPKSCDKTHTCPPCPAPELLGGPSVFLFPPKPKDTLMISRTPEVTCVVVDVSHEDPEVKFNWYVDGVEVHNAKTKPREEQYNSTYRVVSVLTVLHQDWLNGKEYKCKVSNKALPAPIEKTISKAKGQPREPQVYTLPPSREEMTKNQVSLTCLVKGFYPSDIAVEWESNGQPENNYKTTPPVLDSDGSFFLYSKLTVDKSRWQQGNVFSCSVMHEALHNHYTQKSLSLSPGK", "assay": "SPR epitope analysis (simultaneous binding)", "details": "SPR, mixed and injected simultaneously at 750 nM or 1000 nM", "procedure": "Surface plasmon resonance (SPR) was used to analyze the epitopes and determine simultaneous binding of different lipocalin muteins. Human CTGF with a human IgG1 Fc Tag was directly immobilized to a CM5 Chip (Creative Biomart, 10 μg/mL in 10 mM sodium acetate pH 4.5) until an immobilization level of 470-630 resonance units was achieved. The reference channel was activated/deactivated. […] As control, single lipocalin muteins were injected and the resulting signal of single and mixtures was compared at the end of the injection. The chip was regenerated with 3 M MgCl2 and Glycine-HCl pH1.5 for each 60 s at a flowrate of 15 μL/min.\n“Yes” means simultaneous binding is possible, “no” stands for same or overlapping epitope, “n.t.” stands for not tested."}, "huCYR61": {"biological_target": "T6, huCYR61 (Homo sapiens, UniProt O00622)", "T6 sequence (O00622 25-381)": "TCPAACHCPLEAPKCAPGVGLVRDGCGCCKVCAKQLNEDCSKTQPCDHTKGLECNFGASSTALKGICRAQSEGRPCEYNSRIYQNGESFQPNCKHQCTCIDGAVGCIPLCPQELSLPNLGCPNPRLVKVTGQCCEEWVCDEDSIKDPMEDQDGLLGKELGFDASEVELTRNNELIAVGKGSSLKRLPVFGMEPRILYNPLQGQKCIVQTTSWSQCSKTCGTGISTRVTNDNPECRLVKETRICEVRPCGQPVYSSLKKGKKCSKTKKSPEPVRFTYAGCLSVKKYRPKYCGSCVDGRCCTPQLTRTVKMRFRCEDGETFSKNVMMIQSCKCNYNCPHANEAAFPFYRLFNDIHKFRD", "assay": "Specificity ELISA (CCN proteins), huCYR61", "format": "binding", "details": "coated 1 μg/ml; assessed when human CTGF signal approached saturation", "procedure": "as §1, §2"}}}
{"molecule": "SEQ ID NO: 7: parent CTGF-binding hNGAL lipocalin mutein (protein, lipocalin mutein) QDSTSDLIPAPPLSKVPLQQNFQDNQFHGKWYVVGLAGNYGLRTDKRPSKMFATIYELKEDKSYDVTSVRFEQERCHYTIRTFVPGSQPGEFTTGSIKSRPGQTSSLVRVVSTNYNQHAMVFFKSVIQNREYFAITLYGRTKELTSELKENFIRFSKSLGLPENHIVFPVPIDQCIDG", "values": [{"measurement": "ELISA binding to huNOV", "setting": "huNOV", "value": "No binding"}, {"measurement": "ELISA binding to huWISP-3", "setting": "huWISP-3", "value": "No binding"}, {"measurement": "ELISA binding to HUMAN CTGF", "setting": "CTGF", "value": "Binding"}, {"measurement": "ELISA binding to huWISP-2", "setting": "huWISP-2", "value": "No binding"}, {"measurement": "Simultaneous binding with SEQ ID NO: 7", "setting": "[1]", "value": "no"}, {"measurement": "Simultaneous binding with SEQ ID NO: 9", "setting": "[1]", "value": "no"}, {"measurement": "Simultaneous binding with SEQ ID NO: 25", "setting": "[1]", "value": "yes"}, {"measurement": "Simultaneous binding with SEQ ID NO: 29", "setting": "[1]", "value": "yes"}, {"measurement": "Simultaneous binding with SEQ ID NO: 60 and 61 (control antibody)", "setting": "[1]", "value": "no"}, {"measurement": "ELISA binding to huCYR61", "setting": "huCYR61", "value": "No binding"}]}
